From paper PMC5551578

Molecular target: HIV-1 92BR-gp120 (HIV-1 (92BR))
Assay: BLI

B1: gp120-Ab8 (antibody, V domains shown)
VH: EVQLVESGGGVVQPGRSLRLSCAASGFTFSFYGMHWVRQAPGKGLEWVAVISYDGRIKSYADSVKGRFTTSRDNSKNTLYLEMSSLRVEDTAVYYCAKSLVGATLLGPFGPWGQGSLVTVSS
VL: SYELTQPPSVSVAPGQTARITCGGDKIGGERVHWYQQKPGQAPVLVVYDDRDRPSGIPERFSGSNSGNTATLTISRVEAGDEADYYCQVRDSTSDHYVFGSGTKVTVL
B1 gave a Kd of 89.3 nM.
